This note sets out measurements from article PMC4569848 (Nature Communications, 2015).

The chains are these.
T1: GST-clathrin 1–494 (human, UniProt Q00610 1-494)
T1 construct: clathrin, human, residues 1-494, in pGEX-6P1; source: E. coli BL21, purified (glutathione-Sepharose 4B, eluted with GSH); not shown: GST, N-terminal, kept
T1 sequence (looked up): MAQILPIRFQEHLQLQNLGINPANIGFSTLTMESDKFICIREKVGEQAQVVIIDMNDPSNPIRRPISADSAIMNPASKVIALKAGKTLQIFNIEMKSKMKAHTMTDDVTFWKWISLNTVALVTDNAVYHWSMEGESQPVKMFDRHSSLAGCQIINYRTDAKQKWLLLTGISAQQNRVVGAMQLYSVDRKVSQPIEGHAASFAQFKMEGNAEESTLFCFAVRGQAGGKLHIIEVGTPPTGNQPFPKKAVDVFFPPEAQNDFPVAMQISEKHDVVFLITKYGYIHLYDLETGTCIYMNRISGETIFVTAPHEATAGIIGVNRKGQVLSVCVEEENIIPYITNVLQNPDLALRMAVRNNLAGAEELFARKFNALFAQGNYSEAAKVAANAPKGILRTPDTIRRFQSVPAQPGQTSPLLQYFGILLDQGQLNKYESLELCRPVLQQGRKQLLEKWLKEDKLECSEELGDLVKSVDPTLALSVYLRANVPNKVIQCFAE

B1: β-arrestin-1-L338-F2Y (natural protein, bovine, UniProt P17870 1-418, looked up)
chain: MGDKGTRVFKKASPNGKLTVYLGKRDFVDHIDLVEPVDGVVLVDPEYLKERRVYVTLTCAFRYGREDLDVLGLTFRKDLFVANVQSFPPAPEDKKPLTRLQERLIKKLGEHAYPFTFEIPPNLPCSVTLQPGPEDTGKACGVDYEVKAFCAENLEEKIHKRNSVRLVIRKVQYAPERPGPQPTAETTRQFLMSDKPLHLEASLDKEIYYHGEPISVNVHVTNNTNKTVKKIKISVRQYADICLFNTAQYKCPVAMEEADDTVAPSSTFCKVYTLTPFLANNREKRGLALDGKLKHEDTNLASSTLLREGANREILGIIVSYKVKVKLVVSRGGLLGDYASSDVAVELPFTLMHPKPKEEPPHREVPEHETPVDTNLIELDTNDDDIVFEDFARQRLKGMKDDKEEEEDGTGSPRLNDR
modifications: 3,5-difluorotyrosine (F2Y) at 338
notes: β-arrestin-1, bovine, full-length cDNA in pET22b, amber codon at L338 read as F2Y; also called F2Y-L338; source: E. coli BL21 (DE3) with pEVOL-F2YRS and F2Y in the medium, purified (Ni-NTA, gel filtration)
B2: β-arrestin-1-K294-F2Y (natural protein, bovine, UniProt P17870 1-418, looked up)
chain: B1 chain with K294Y, Y338L
modifications: 3,5-difluorotyrosine (F2Y) at 294
notes: β-arrestin-1, bovine, full-length cDNA in pET22b, amber codon at K294 read as F2Y; source: E. coli BL21 (DE3) with pEVOL-F2YRS and F2Y in the medium, purified (Ni-NTA, gel filtration)
B3: β-arrestin-1-F75-F2Y (natural protein, bovine, UniProt P17870 1-418, looked up)
chain: B1 chain with F75Y, Y338L
modifications: 3,5-difluorotyrosine (F2Y) at 75
notes: β-arrestin-1, bovine, full-length cDNA in pET22b, amber codon at F75 read as F2Y; source: E. coli BL21 (DE3) with pEVOL-F2YRS and F2Y in the medium, purified (Ni-NTA, gel filtration)
B4: β-arrestin-1-F388-F2Y (natural protein, bovine, UniProt P17870 1-418, looked up)
chain: B1 chain with Y338L, F388Y
modifications: 3,5-difluorotyrosine (F2Y) at 388
notes: β-arrestin-1, bovine, full-length cDNA in pET22b, amber codon at F388 read as F2Y; source: E. coli BL21 (DE3) with pEVOL-F2YRS and F2Y in the medium, purified (Ni-NTA, gel filtration)
B5: β-arrestin-1-N375-F2Y (natural protein, bovine, UniProt P17870 1-418, looked up)
chain: B1 chain with Y338L, N375Y
modifications: 3,5-difluorotyrosine (F2Y) at 375
notes: β-arrestin-1, bovine, full-length cDNA in pET22b, amber codon at N375 read as F2Y; also called F2Y-N375; source: E. coli BL21 (DE3) with pEVOL-F2YRS and F2Y in the medium, purified (Ni-NTA, gel filtration)
B6: β-arrestin-1-K107-F2Y (natural protein, bovine, UniProt P17870 1-418, looked up)
chain: B1 chain with K107Y, Y338L
modifications: 3,5-difluorotyrosine (F2Y) at 107
notes: β-arrestin-1, bovine, full-length cDNA in pET22b, amber codon at K107 read as F2Y; source: E. coli BL21 (DE3) with pEVOL-F2YRS and F2Y in the medium, purified (Ni-NTA, gel filtration)
B7: β-arrestin-1-V8-F2Y (natural protein, bovine, UniProt P17870 1-418, looked up)
chain: B1 chain with V8Y, Y338L
modifications: 3,5-difluorotyrosine (F2Y) at 8
notes: β-arrestin-1, bovine, full-length cDNA in pET22b, amber codon at V8 read as F2Y; source: E. coli BL21 (DE3) with pEVOL-F2YRS and F2Y in the medium, purified (Ni-NTA, gel filtration)
B8: β-arrestin-1-D383-F2Y (natural protein, bovine, UniProt P17870 1-418, looked up)
chain: B1 chain with Y338L, D383Y
modifications: 3,5-difluorotyrosine (F2Y) at 383
notes: β-arrestin-1, bovine, full-length cDNA in pET22b, amber codon at D383 read as F2Y; source: E. coli BL21 (DE3) with pEVOL-F2YRS and F2Y in the medium, purified (Ni-NTA, gel filtration)
B9: β-arrestin-1-T136-F2Y (natural protein, bovine, UniProt P17870 1-418, looked up)
chain: B1 chain with T136Y, Y338L
modifications: 3,5-difluorotyrosine (F2Y) at 136
notes: β-arrestin-1, bovine, full-length cDNA in pET22b, amber codon at T136 read as F2Y; also called F2Y-T136; source: E. coli BL21 (DE3) with pEVOL-F2YRS and F2Y in the medium, purified (Ni-NTA, gel filtration)
B10: β-arrestin-1-K138-F2Y (natural protein, bovine, UniProt P17870 1-418, looked up)
chain: B1 chain with K138Y, Y338L
modifications: 3,5-difluorotyrosine (F2Y) at 138
notes: β-arrestin-1, bovine, full-length cDNA in pET22b, amber codon at K138 read as F2Y; source: E. coli BL21 (DE3) with pEVOL-F2YRS and F2Y in the medium, purified (Ni-NTA, gel filtration)
B11: β-arrestin-1-F277-F2Y (natural protein, bovine, UniProt P17870 1-418, looked up)
chain: B1 chain with F277Y, Y338L
modifications: 3,5-difluorotyrosine (F2Y) at 277
notes: β-arrestin-1, bovine, full-length cDNA in pET22b, amber codon at F277 read as F2Y; also called F2Y-F277; source: E. coli BL21 (DE3) with pEVOL-F2YRS and F2Y in the medium, purified (Ni-NTA, gel filtration)
B12: β-arrestin-1-R7-F2Y (natural protein, bovine, UniProt P17870 1-418, looked up)
chain: B1 chain with R7Y, Y338L
modifications: 3,5-difluorotyrosine (F2Y) at 7
notes: β-arrestin-1, bovine, full-length cDNA in pET22b, amber codon at R7 read as F2Y; source: E. coli BL21 (DE3) with pEVOL-F2YRS and F2Y in the medium, purified (Ni-NTA, gel filtration)
B13: β-arrestin-1-K11-F2Y (natural protein, bovine, UniProt P17870 1-418, looked up)
chain: B1 chain with K11Y, Y338L
modifications: 3,5-difluorotyrosine (F2Y) at 11
notes: β-arrestin-1, bovine, full-length cDNA in pET22b, amber codon at K11 read as F2Y; source: E. coli BL21 (DE3) with pEVOL-F2YRS and F2Y in the medium, purified (Ni-NTA, gel filtration)
B14: β-arrestin-1 wild type (natural protein, bovine, UniProt P17870 1-418, looked up)
chain: B1 chain with Y338L
notes: β-arrestin-1, bovine, full-length wild-type cDNA in pET22b; also called β-arrestin-1-WT; WT; source: E. coli BL21, purified (Ni-NTA, Superdex 200)
B15: β-arrestin-1 (bovine, full-length wild type, C-terminal His tag) (natural protein, UniProt P17870 1-418, looked up)
chain: B1 chain with Y338L
notes: β-arrestin-1, bovine, full-length wild-type cDNA in pET22b; also called native β-arrestin-1; wild-type β-arrestin-1; source: E. coli BL21, purified (Ni-NTA, Superdex 200)

Numbering of substitutions follows the chain as printed. Names may count otherwise.

One assay addresses T1, GST-clathrin 1–494. The assay is described as follows: pull-down; β-arrestin-1-F2Y mutants (300 nM) incubated with equal concentrations of GST-clathrin and V2R-phospho-peptide (V2Rpp), or without peptide; pulled down with GST beads; bound β-arrestin-1 detected by western blot with a β-arrestin-1 antibody. The following applies: both partners purified. For orientation: Immunoblotting shows a protein as a band on a membrane.
Take B1: the binding result is recorded as “binds”.

Regarding B2, the binding result is “binds”.

For the molecule B3, the binding result is reported as “binds”.

Regarding B4, the binding result is “binds”.

For B5, the binding result was “binds”.

On to B6, for which the binding result is reported as “binds”.

As to B7, the binding result was “binds”.

As for B8, the binding result is recorded as “binds”.

Take B9: the binding result is “binds”.

For the molecule B10, the binding result is recorded as “binds”.

For B11, the binding result is reported as “binds”.

As for B12, the binding result is reported as “binds”.

For B13, the binding result was “binds”.

Another assay concerns the target T1, GST-clathrin 1–494. The assay is described as follows: pull-down; GST-clathrin pull-down of β-arrestin-1 with V2Rpp at protein:V2Rpp ratios 1:0, 1:0.03, 1:0.3, 1:3 and 1:9; western blot for β-arrestin-1, densitometry. To be noted: both partners purified.
As to B14, the binding result is listed as “binds”.

A further assay deals with T2, GST-SRC3D (SRC-SH2-SH3-kinase-three domain) (chicken, UniProt P00523 87-531).
T2 construct: c-SRC, chicken, residues 87-531, containing SH3, SH2 and catalytic domains; source: E. coli BL21, purified (glutathione-Sepharose 4B, eluted with GSH); not shown: GST, N-terminal, kept
The assay can be described thus: pull-down; GST pull-down; 300 nM β-arrestin-1 first mixed with phosphopeptide (equal concentration) 30 min at room temperature in 20 mM Tris-HCl pH 8.0, 150 mM NaCl, 2 mM EDTA, 1 mM DTT; then 10 μM GST-clathrin or GST-SRC 1 h; GST beads 2 h at 4 °C; blot with a β-arrestin-1 antibody. To be noted: both partners purified.
On to B15, for which the binding result is “binds”.
